Source: IntAct's records for PubMed 26551074

B1: Telomerase-associated protein of 19 kDa (Tetrahymena thermophila (strain SB210)), D2CVN7 (parent)
chain: MQQPKRNFDLYKLITDKQIDFQVADLIQDEQSSFVSVRIYGQFKCFVPKSTIQEQLDKIKNLSSKELAKNKIFKFLSEYNKNNQKQDELSHDYYGYFKVQQHQFILNLENAQREASLAVDDFYFINGRIYKTNHDILILQAHHVYQMQKPTLQLLQAASEINQN
partner: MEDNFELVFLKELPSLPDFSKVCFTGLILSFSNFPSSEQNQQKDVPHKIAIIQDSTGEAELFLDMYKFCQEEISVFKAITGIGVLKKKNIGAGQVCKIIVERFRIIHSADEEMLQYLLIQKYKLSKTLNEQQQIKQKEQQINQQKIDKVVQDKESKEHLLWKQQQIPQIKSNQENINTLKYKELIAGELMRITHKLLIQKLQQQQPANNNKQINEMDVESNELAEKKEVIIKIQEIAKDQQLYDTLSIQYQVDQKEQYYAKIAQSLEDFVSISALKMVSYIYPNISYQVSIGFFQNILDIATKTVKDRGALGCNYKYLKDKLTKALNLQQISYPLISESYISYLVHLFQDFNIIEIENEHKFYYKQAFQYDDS
B2: Telomerase-associated protein of 45 kDa (Tetrahymena thermophila (strain SB210)), Q6JXI5 (parent)
chain: B1 partner
partner: B1 chain

Variants of: B1
Details: with tap45_tetts TAP45, Q6JXI5

Row | Variant | effect of a mutation on the interaction
1 | R38E | disrupting interaction strength
2 | Y145A | disrupting interaction strength
3 | I161R | disrupting interaction strength
4 | M147W | disrupting interaction strength

Variants of: B2
Details: with tap19_tetts TAP19, D2CVN7

Row | Variant | effect of a mutation on the interaction
5 | A109R | disrupting interaction strength
6 | E112R | disrupting interaction strength
7 | A109W | disrupting interaction strength
8 | M113W | disrupting interaction strength
